Assay results reported in the supplement of paper PMC9170038.

Test system: MS2 coat protein
Test: apparent KD of MS2 coat protein; designed switch direction (-1 OFF switch, 1 ON switch): -1; higher = weaker reporter binding
How it was run: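 Designed RNA switches with common flanks were transcribed on Illumina chips by stalled E. coli RNA polymerase and titrated with SNAP-549-labelled MS2 coat protein, from 0.7 or 1.5 nM doubling to 3 µM, in Tris-HCl pH 7.5 buffer with KCl, MgCl2, BSA, DTT, tRNA and Tween-20. Steps lasted 0.8–1.5 h (lowest) to 10–20 min (highest). Titrations ran without input, with 200 uM small-molecule ligand, or with an oligonucleotide input. Normalised cluster fluorescence was curve-fitted, and apparent KD is the per-design median over clusters.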

[1] = Eterna round: R95, input ligand: microRNA oligo, concentration not stated
[2] = input ligand: microRNA oligo, concentration not stated
[3] = Eterna round: R95, input ligand: FMN 200 uM
[4] = Eterna round: R95, input ligand: none

| Sequence | apparent KD of MS2 coat protein [1] | apparent KD of MS2 coat protein (input ligand: FMN 200 uM) | apparent KD of MS2 coat protein (input ligand: none) | other results |
| --- | --- | --- | --- | --- |
| UAUUAAUGCAAGGAUAUGCUAUUAAUUUUUUUUGCAGAAGGUGCAACAUGAGGAUCACCCAUGUUUGAGGGUAU [JR_E6_Sub029] (puzzle: Exclusion 6) | 55.9 nM |  |  |  |
| CGGUGUAACACAGGAUAUCAUCGCAACUGACGUUGAGAAGGGUGACAUGAGGAUCACCCAUGUGAUUUCUCAAUAUUAUACAUC [Prohibition 83 - Jieux - Exclusion NG 1] (Eterna round: R96, puzzle: Exclusion NG 1) |  | 508 nM | 629 nM | apparent KD of MS2 coat protein [2]: 481 nM |
| GAUUACCUAACAAGUAAGCACAUGAGGAUCACCCAUGUGGAGGGUCAUGUCAUGCUCAAGAUGCUCGUCAUUUCUAG [Eternabot (L2) Solution 38] (Eterna round: R97, puzzle: Sensor, turn-off variant 1) |  | 180 nM | 193 nM |  |
| ACAUGUAAUGCAGGAUAUCGGACACAUGAGGAUCACCCAUGUGACCAGAGGUAUUGCUAAGAGUCUGAGAAGGGUAUGUACAUG [Ex NG2 #50] (Eterna round: R96, puzzle: Exclusion NG 2) |  | 20 nM | 19.1 nM | apparent KD of MS2 coat protein [2]: 17.5 nM |
| AAGAAACAUGAGGAUCACCCAUGUGAGGAUAUGAAAAAGAAAAGAAAAGAAAGAAGGGUCAGAAGGCACAAAGG [salish99-ex1_r3_028] (puzzle: Exclusion 1) | 25.3 nM |  |  | apparent KD of MS2 coat protein [3]: 24 nM; apparent KD of MS2 coat protein [4]: 35.5 nM |
| CGGUGUAGAGGAUAUACGUGGAUGUAAGUUCAUGAUAUUUUACAUGAGGAUCACCCAUGUAGAAGGCUAUAGCG [JR_Ex2_Sub079] (Eterna round: R97, puzzle: Exclusion 2) |  | 36.2 nM | 351 nM |  |
| CCGGAAAUAGAGGAUAUCGUAUCGGAUACGAUACGAGAAGGCUGUACAUGAGGAUCACCCAUGUGUCCUACCGG [Fiskers Ex 6 - 58] (puzzle: Exclusion 6) | 11.3 nM |  |  |  |
| UAAUGUAUAUAGGAUAUCUAGCUGGUAACAGCUAGAGAAGGAUGUACAUGAGGAUCACCCAUGUAAAUCAGUGA [Ex6/14-B2] (Eterna round: R97, puzzle: Exclusion 6) |  | 186 nM | 41.6 nM |  |
| AACUGGACAGGAUAUGUACUUGAGCACUUGAGGAUCACCCAAGUCAUCAAGUACUCAGGCACAGAAGGGUUUAUUU [jl-ex5.4.69 ViennaUCT mod] (Eterna round: R97, puzzle: Exclusion 5) |  | 311 nM | 200 nM |  |
| GCCUCACUUGAGGAUCACCCAAGUCAGGAUAUUCACUGAACUGCGUAGCAAUUCGGCCGAAGAAGGGAUUCGGG [Veala] (Eterna round: R97, puzzle: Exclusion 1) |  | 75.2 nM | 107 nM |  |
| UUUAAUUUUUUUUUUUUACAAGCUUUUUGCUCGUCUUAUACAUGAGGAUCACCCAUGUAGAUGGAGGGUAAAUUAUC [JMF 86] (puzzle: Sensor v3, turn-off variant 2) | 27.9 nM |  |  | apparent KD of MS2 coat protein [3]: 17.4 nM; apparent KD of MS2 coat protein [4]: 14.5 nM |
| AACUAGUCAGGAUAUACGAACAUGUCAAAAAACAUGAAGGGACAUGAGGAUCACCCAUGUAGAAGGGACUAGCA [74%, Web mod - With 3 less G's] (Eterna round: R96, puzzle: Exclusion 2) |  |  |  | apparent KD of MS2 coat protein [2]: 29.3 nM |
| GUUAACGUAGGAUAUUAGUACAUGCACAUGAGGAUCACCCAUGUUUAGUGGGUCUAGGAAUAAGAAGGGCGAAGAA [EX5 #23] (Eterna round: R97, puzzle: Exclusion 5) |  | 170 nM | 309 nM |  |
| AGGCCACAUGAGGAUCACCCAUGUUAGGAUAUCGAGAGUACAACGAGCCGUCACUUCCCGAGAAGGGACAAGGG [Eternabot (Original) Solution 22] (Eterna round: R97, puzzle: Exclusion 1) |  | 65.3 nM | 54.5 nM |  |
| GCCGGUGAUCUAACCCGUAACAUGAGGAUCACCCAUGUAAGCUCGGGUUCUACAGAACCCGAUAUUAGCUCGUCAGU [Eternabot (Original) Solution 3] (Eterna round: R97, puzzle: Sensor, turn-off variant 1) |  | 599 nM | 894 nM |  |
| AAUAACAGAGGAUAUACUAUUUUAUGUAUUUAUUAUUUUAAACAUGAGGAUCACCCAUGUAGAAGGCUGAUUGA [JMF 70] (puzzle: Exclusion 2) | 28.5 nM |  |  |  |
| UAGUGACAUGAGGAUCACCCAUGUGAGGAUAUAGUGAGAGAAAAAAGGAGAGAGAGGACUAGAAGGCACAGUGA [JR_Exclu1_Sub032] (puzzle: Exclusion 1) | 52.4 nM |  |  | apparent KD of MS2 coat protein [3]: 76.6 nM; apparent KD of MS2 coat protein [4]: 92.7 nM |
| UUGUUGUAUGUAGGAUAUGCAUAUUGUUAUUAUGCAGAAGGACAUGAGGAUCACCCAUGUAUGUUAUUAUUAUGUGUUAUGUGU [Title] (Eterna round: R96, puzzle: Exclusion NG 1) |  |  |  | apparent KD of MS2 coat protein [2]: 30.3 nM |

| Sequence | apparent KD of MS2 coat protein [1] | apparent KD of MS2 coat protein (input ligand: FMN 200 uM) | apparent KD of MS2 coat protein (input ligand: none) | other results |
| --- | --- | --- | --- | --- |
| CGUGUGUAAGGAUAUUUUGCAAGGCGGUGGACCCGCCUAUUAGAGAAGGUACAUGAGGAUCACCCAUGUGAGCC [Eternabot (L2) Solution 74] (Eterna round: R97, puzzle: Exclusion 4) |  | 58.2 nM | 42.3 nM |  |
| CUUUCGUGAGGAUAUCAGUAGUAAUAAUAUAAAAUUACUACUGAGAAGGCACAUGAGGAUCACCCAUGUUCCUC [salish99_ex3_r3_101] (puzzle: Exclusion 4) | 23.7 nM |  |  |  |
| CCGGCUUAGGAGGAUAUAGGAGUCGAUAGACACCUAGAAGGCCUAACAUGAGGAUCACCCAUGUGACCUACCGG [Mod of Eli 28 - Jieux - Exclusion 6] (Eterna round: R97, puzzle: Exclusion 6) |  | 132 nM | 28.6 nM |  |
| CUGGUCUAUGUAGGAUAUGGUGUAUAUGUAUUACCAGAAGGACAUGAGGAUCACCCAUGUGUCGUGGUAUGAGUAGGUGAUGUU [Random] (Eterna round: R96, puzzle: Exclusion NG 1) |  |  |  | apparent KD of MS2 coat protein [2]: 40.2 nM |
| AUCGUGUGAGGAUAUCGAUUAUGGAAGUCUAGGUCCAUACGCGAGAAGGCACAUGAGGAUCACCCAUGUAAUGG [jl-ex4-4.32 ViennaUCT mod] (Eterna round: R97, puzzle: Exclusion 4) |  | 29.8 nM | 486 nM |  |
| CCGACAUGAGGAUAUCCAUCUGGAUCAGACUAGAUCCUGAUGGAGAAGGUACAUGAGGAUCACCCAUGUUACGG [Eli 4x 4.46] (Eterna round: R97, puzzle: Exclusion 4) |  | 372 nM | 330 nM |  |
| AAGGGUGCUUUUAGAACGACAUGAGGAUCACCCAUGUAGACUGAGGAUAUCUACUCCUAAGGACCGGAGAAGGCAGUGUAAUGC [Ex NG3 #64] (Eterna round: R96, puzzle: Exclusion NG 3) |  | 57.8 nM | 55.9 nM | apparent KD of MS2 coat protein [2]: 75 nM |
| UAUAUGUCAGGAUAUCGCAACUGCGCGCGCAAGAAUCAUAACGAGAAGGGACAUGAGGAUCACCCAUGUACACU [I dont know] (puzzle: Exclusion 4) | 18.1 nM |  |  |  |
| CUUCGACAUGAGGAUCACCCAUGUCAGGAUAUUGUGUAUCGGGUUUUUUACGGAUAGGCAAGAAGGGAUGUGUG [LRO-Excl1-06] (puzzle: Exclusion 1) | 32.7 nM |  |  |  |
| AGCAGGCAUUCCUCUGGACACAUGAGGAUCACCCAUGUUCGUCGCUCGCAGCGUUGAGGCAUUACCCUUAACGCUUU [Eternabot (Original) Solution 29] (Eterna round: R97, puzzle: Sensor, turn-off variant 1) |  | 52.5 nM | 48.8 nM |  |
| UUAUUGCAAGCAAGAUCCCACAUGAGGAUCACCCAUGUGCUCGUCUUAUAAGGUACUGUGACGAAAGUCACGGUACC [Sensor 3, v1 - 99] (puzzle: Sensor v3, turn-off variant 1) | 462 nM |  |  | apparent KD of MS2 coat protein [3]: 26 nM; apparent KD of MS2 coat protein [4]: 30.6 nM |
| AGCUGUGGCCGAGGAUAUAUACAUGAGGAUCACCCAUGUAGGUGCGGAUACUCGCACCAAUAAGUGUAGAAGGCGGUCUCAGCA [Eli eng2 - 058] (Eterna round: R96, puzzle: Exclusion NG 2) |  | 10.7 nM | 13.3 nM | apparent KD of MS2 coat protein [2]: 13.1 nM |
| CGAUGUAACACAGGAUAUCAUCGCAACUGACGUUGAGAAGGGUGACAUGAGGAUCACCCAUGUGAUUUCUCAAUAUUAUACAUC [Prohibition 82 - Jieux - Exclusion NG 1] (Eterna round: R96, puzzle: Exclusion NG 1) |  | 715 nM | 1390 nM | apparent KD of MS2 coat protein [2]: 830 nM |
| GAUCCACAUGAGGAUCACCCAUGUGAGGAUAUGAUACUAUGUACUUCGGUACAUAGUAUCAGAAGGCAUAUGAA [Ex1-3: 47] (Eterna round: R96, puzzle: Exclusion 1) |  | 199 nM | 41.7 nM | apparent KD of MS2 coat protein [2]: 33.2 nM |
| GAUCAACAUGAGGAUCACCCAUGUGAGGAUAUGAUACUAUGUACUUCGGUACAUAGUAUCAGAAGGCAUGUAAA [Ex1-3: 78] (puzzle: Exclusion 1) | 54.5 nM |  |  |  |
| GCUUGUGGGCAAGGAUAUCCUGCGCUGUUCUGGUUCGUGUCUGUCACAUGAGGAUCACCCAUGUGGGAGAAGGUGCCUGUGGCG [Design 66] (Eterna round: R96, puzzle: Exclusion NG 2) |  | 22 nM | 24.2 nM | apparent KD of MS2 coat protein [2]: 17.4 nM |
| AGCUAGUCAGGAUAUUCUAAUGAUUACAUGAGGAUCACCCAUGUGAAUGGACAAGGGUGUGAAGAAGGGACUAGCG [Omei Ex5 A10] (Eterna round: R97, puzzle: Exclusion 5) |  | 426 nM | 4030 nM |  |
